These results are taken from patent publication US20220169732A1 (BIOND BIOLOGICS, published 2022).

For experiment [1], the target named is T1, Biotin conjugated L145K CD28 stalk region dimeric peptide (human, C-terminal biotin; dimer through Cysteine 141).
T1 peptide: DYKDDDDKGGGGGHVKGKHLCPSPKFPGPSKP
The experiment can be described thus: direct ELISA on L145K dimeric stalk peptide on neutravidin plates, anti His tag-HRP (FIG. 23).

Experiment [2] concerns the target T2, membranal human CD28 (full-length human CD28 on cells) (human, UniProt P10747 19-220).
T2 construct: in the functional assays also the CD28 of human CD3 or CD4 T cells and PBMC; also called mCD28; membranal CD28
The experiment can be described thus: FACS, FITC conjugated VHH on HEK cells overexpressing human CD28 (FIG. 14).

The target in experiment [3] is T3, BSA conjugated CD28 stalk region dimeric peptide (human, also: dimer through the cysteine, BSA conjugated via C-terminal Lys by hydrazide chemistry).
T3 construct: Peptide used for immunization and, BSA conjugated, as ELISA antigen for M9; also called stalk region peptide
T3 peptide: GKHLCPSPLFPGPSKPK
The experiment can be described thus: ELISA, antigen immobilized, serial dilution of M9, anti mouse IgG-HRP (FIG. 12A).

Where no end group is shown, it is not given here.

B1: VHH clone 2A1 (VHH)
VHH: EVQLVESGGGLVQAGESLRLSCAASGSIASINAMGWYRQAPGSQRELVAAISGGGDTYYADSVKGRFTISRDNAKTTVYLQMNSLRPEDTAVYYCVVDLYGSDYWDWGQGTQVTVSS
notes: also called VHH #2A1
With B1, the values for the binding result in experiment [1] and in experiment [2] were “no binding (tested: 0.2-5 µg/mL)” and “binds”, respectively.

B2: VHH clone 4A1 (VHH)
VHH: QVQLVESGGGLVQAGGSLRLSCAASGSIFSINAMGWYRQAPGKQRERVAAITSGGSTNYADSVKGRFTISRDNAKNTVYLQMNNLEPRDAGVYYCVVDLYGEDYWIWGQGTQVTVSS
On to B2, for which the binding result in experiment [1] is “no binding (tested: 0.2-5 µg/mL)”.

B3: antibody M9 (antibody, V domains shown)
VH: DVKLVESGGGLVKLGGSLKLSCVASGFTFSSYYMSWVRQTPEKRLEWVATISDGGDNTYYAGTVTGRFTISRDFAKNTLYLQMNSLTSEDTAVYYCARIHWPYYFDSWGQGTTLTVSS
VL: QFVLSQSPAILSASPGEMLTMTCRASSSVSYMNWYQQKPGSSPKPWIYATSDLASGVPARFSGSGSGTSYSLTISRVEAEDAATYYCQQWSSHPPTFGGGTKLEIR
notes: Full-size mouse antibody raised in CD1 mice against the dimeric stalk peptide; detected with anti mouse IgG; also called clone M9; anti-cleavage antibody M9
For B3, in experiment [3], the binding result is “binds”.

B4: VHH clone 4A4 (VHH)
VHH: EVQLVESGGGLVQAGGSLRLSCAASGSLFSINAMAWYRQAPGKQRELVAAITSSGSTNYANSVKGRFTVSRDNAKNTMYLQMNSLKPEDTAVYYCVVDEYGSDYWIWGQGTQVTVSS
In the case of B4, in experiment [1], the binding result is “no binding (tested: 0.2-5 µg/mL)”.
